PMC3316156 (Biochemical Journal, 2012)

Assays:
[1] = substrate: N[C@@H](CCS)C(=O)O; assay: cystathionine production by LC-MS/MS, non-linear fit; type: biochemical, Caenorhabditis elegans; conditions: co-substrate serine, 100 mM Bis/Tris pH 8.0, 25 °C
[2] = substrate: N[C@@H](CO)C(=O)O; assay: as above; type: biochemical, Caenorhabditis elegans; conditions: co-substrate homocysteine, 100 mM Bis/Tris pH 8.0, 25 °C
[3] = target: the molecule itself; assay: cross-linking

B1: CBS-1 (Caenorhabditis elegans) (protein)
chain: MIQNEVSATHGSTKKGITYNTILEAAQRPTPLVPLKKLKVEHQLQSDIYVKLEYLNIAGSLEDRTADKAFQFAEEIGVVRGDEVFVTAGGSAAISYATVAAVKGIKLTIYAPKGEFDLVDTVLHTLGVKTVELPFGTFAEARVQTDEAAQQKGVFSLNKFTTNAAFVANLQKTALEIEKAVNNKSIGKVGAVVIPLNTGAAAAGIAAYYKGIGEHGVRVVGVTCKKDTIPEMGLDLKNDLLQEYNVEKREVEEDEAYSFTRHLIGTEGIMAGPSSGAAVLEAIKLAKELPAGSTIVVVLMDGIRNYLRHFLDDDWITANKKDVVTRKDGPQPNSIYDPKVLVYDPTKLAGEWTQDPETKSWSHSEVEFNKFNPERPLVLDTVLDAIGKTPLVKLQHIPKAHGVKCNVYVKCEYMNAGGSTKDRIAKRMVEIAEKTGKPGKLVPGVTLIEPTSGNTGIGLSLASAVRGYKCIITMPKKMSKEKSIAMASLGSTIIRTPNEAGFDSPHSHIGVALRLKSEIQDAVVLDQYCNPGNPLAHYEETAEEIIYDMGDKHIDLVVLTAGTGGTVTGISRKIHERIPTAKVVGVDPHGSILAGPAETDIDFYEVEGIGYDFLPGTLDTSAIDYWAKSHDKESFLMARELIRSEGILCGGSSGCAVHYALEECKSLNLPAEANVVVLLPDGIRNYITKFLDDDWMNERHFLDA
With B1 the Km [1] was 4.29 ± 0.97 mM, the kcat [1] was 43.3 ± 4.33 s⁻¹ and the kcat/Km [1] was 10000 M⁻¹ s⁻¹. It also gave a Km [2] of 5.57 ± 0.68 mM, a kcat [2] of 48.1 ± 2.95 s⁻¹ and a kcat/Km [2] of 8500 M⁻¹ s⁻¹.

B2: human 45CBS (C-terminally truncated human cystathionine β-synthase, residues 1-413) (domain or fragment, UniProt P35520 1-413, looked up)
chain: MPSETPQAEVGPTGCPHRSGPHSAKGSLEKGSPEDKEAKEPLWIRPDAPSRCTWQLGRPASESPHHHTAPAKSPKILPDILKKIGDTPMVRINKIGKKFGLKCELLAKCEFFNAGGSVKDRISLRMIEDAERDGTLKPGDTIIEPTSGNTGIGLALAAAVRGYRCIIVMPEKMSSEKVDVLRALGAEIVRTPTNARFDSPESHVGVAWRLKNEIPNSHILDQYRNASNPLAHYDTTADEILQQCDGKLDMLVASVGTGGTITGIARKLKEKCPGCRIIGVDPEGSILAEPEELNQTEQTTYEVEGIGYDFIPTVLDRTVVDKWFKSNDEEAFTFARMLIAQEGLLCGGSAGSTVAVAVKAAQELQEGQRCVVILPDSVRNYMTKFLSDRWMLQKGFLKEEDLTEKKPWWWHLR
For B2, the “stoichiometry N” value [3] was 2.
